Drawing on US20240116985A1, “STAPLED PEPTIDES AND METHODS THEREOF” (priority 2020, published 2024), this text covers IC50 and EC50 for 29 molecules.

The labels stand for the following.
B1: I-1988 (peptide)
peptide: Ac-PD[tBuAla][R6]DDAAFL[PyrS2][3Thi][Bta]Q-NH2
modifications: staple 4-11
B2: I-1992 (peptide)
peptide: Ac-PD[tBuAla][R4]DDAAFL[PyrS2][3Thi][Bta]Q-NH2
modifications: staple 4-11; not fully specified; printed as Ac-Pro-Asp-Npg-R4-Asp-Asp-Ala-Ala-Phe-Leu-PyrS2-3Thi-BztA-Gln-NH2; also: staple -CH=CH- reduced to -CH2-CH2-
B3: I-2004 (peptide)
peptide: Ac-[αAllylPro]D[tBuAla][B5(4)]NT[Lys(iPr)]AFN[PyrS2″][3Thi][Bta]Q-NH2
modifications: staple 1-4, 4-11; not fully specified; printed as Ac-PL3-Asp-Npg-B5-Asn-Thr-iPrLys-Ala-Phe-Asn-PyrS2-3Thi-BztA-Gln-NH2
B4: I-2006 (peptide)
peptide: Ac-[αAllylPro]D[tBuAla][B5(4)]NTA[Lys(iPr)]FN[PyrS2″][3Thi][Bta]Q-NH2
modifications: staple 1-4, 4-11
B5: I-1993 (peptide)
peptide: Ac-PD[tBuAla][dαMeGly(allyl)]DDAAFL[PyrS2][3Thi][Bta]Q-NH2
modifications: staple 4-11; not fully specified; printed as Ac-Pro-Asp-Npg-R3-Asp-Asp-Ala-Ala-Phe-Leu-PyrS2-3Thi-BztA-Gln-NH2; also: staple -CH=CH- reduced to -CH2-CH2-
B6: I-2002 (peptide)
peptide: Ac-[αAllylPro]DA[B5(4)]NTAAFN[PyrS2″][3Thi][Bta]Q-NH2
modifications: staple 1-4, 4-11; not fully specified; printed as Ac-PL3-Asp-Ala-B5-Asn-Thr-Ala-Ala-Phe-Asn-PyrS2-3Thi-BztA-Gln-NH2
B7: I-1991 (peptide)
peptide: Ac-PD[tBuAla][R6]DDAAFL[PyrS2][3Thi][Bta]Q-NH2
modifications: staple 4-11; not fully specified; printed as Ac-Pro-Asp-Npg-R6-Asp-Asp-Ala-Ala-Phe-Leu-PyrS2-3Thi-BztA-Gln-NH2; also: staple -CH=CH- reduced to -CH2-CH2-
B8: I-2005 (peptide)
peptide: Ac-[αAllylPro]D[tBuAla][B5(4)]NT[Lys(iPr)]AFN[PyrS2″][3Thi][Bta]Q-NH2
modifications: staple 1-4, 4-11; not fully specified; printed as Ac-PL3-Asp-Npg-B5-Asn-Thr-iPrLys-Ala-Phe-Asn-PyrS2-3Thi-BztA-Gln-NH2
B9: I-2003 (peptide)
peptide: Ac-[αAllylPro]DA[B5(4)]NTAAFN[PyrS2″][3Thi][Bta]Q-NH2
modifications: staple 1-4, 4-11; not fully specified; printed as Ac-PL3-Asp-Ala-B5-Asn-Thr-Ala-Ala-Phe-Asn-PyrS2-3Thi-BztA-Gln-NH2
B10: I-1989 (peptide)
peptide: Ac-PD[tBuAla][R4]DDAAFL[PyrS2][3Thi][Bta]Q-NH2
modifications: staple 4-11
B11: I-1990 (peptide)
peptide: Ac-PD[tBuAla][dαMeGly(allyl)]DDAAFL[PyrS2][3Thi][Bta]Q-NH2
modifications: staple 4-11
B12: I-764 (peptide)
peptide: Ac-[αAllylPro]D[tBuAla][B5(7)]DDAAFQ[PyrS2][3Thi][Bta]Q-NH2
modifications: staple 1-4, 4-11; also: later-eluting staple isomer
B13: I-1081 (peptide)
peptide: Ac-[αAllylPro]D[tBuAla][B5(3)]DDAAFN[PyrS2″][Phe(2-Cl)][Bta]-Alaol
modifications: staple 1-4, 4-11
B14: I-1071 (peptide)
peptide: Ac-[αAllylPro]D[tBuAla][B5(3)]DEAAFL[PyrS2″][Phe(2-Cl)][Bta]T-NH2
modifications: staple 1-4, 4-11; also: staple stereoisomer: later eluting HPLC peak
B15: I-1074 (peptide)
peptide: Ac-[αAllylPro]D[tBuAla][B5(3)]DEAAFL[PyrS2″]F[Bta]Q-NH2
modifications: staple 1-4, 4-11; also: staple stereoisomer: later eluting HPLC peak
B16: I-1078 (peptide)
peptide: Ac-[αAllylPro]D[Cha][B5(4)]DEAAFL[PyrS2″][Phe(2-Cl)][Bta]Q-NH2
modifications: staple 1-4, 4-11; also: later-eluting HPLC peak staple isomer composition
B17: I-1080 (peptide)
peptide: Ac-[αAllylPro]D[tBuAla][B5(4)]DDAAFN[PyrS2″][Phe(2-Cl)][Bta][Leu(ol)]
modifications: staple 1-4, 4-11
B18: I-1077 (peptide)
peptide: Ac-[αAllylPro]D[Cha][B5(4)]DEAAFL[PyrS2″][Phe(2-Cl)][Bta]Q-NH2
modifications: staple 1-4, 4-11; also: earlier-eluting HPLC peak staple isomer composition
B19: I-771 (peptide)
peptide: Ac-[αAllylPro]D[tBuAla][B5(7)]DDAAFQ[PyrS2][3Thi][Bta]H-NH2
modifications: staple 1-4, 4-11; also: earlier-eluting staple isomer
B20: I-772 (peptide)
peptide: Ac-[αAllylPro]D[tBuAla][B5(7)]DDAAFQ[PyrS2][3Thi][Bta]H-NH2
modifications: staple 1-4, 4-11; also: later-eluting staple isomer
B21: I-1073 (peptide)
peptide: Ac-[αAllylPro]D[tBuAla][B5(3)]DEAAFL[PyrS2″]F[Bta]Q-NH2
modifications: staple 1-4, 4-11; not fully specified; printed as Ac-PL3-Asp-Npg-B5-Asp-Glu-Ala-Ala-Phe-Leu-PyrS2-Phe-BztA-Gln-NH2
B22: I-604 (peptide)
peptide: Ac-[αAllylPro]DI[B5(5)]D[Cit]AAFQ[S8]F[Bta]Q-NH2
modifications: staple 1-4, 4-11; also: staple isomer, earlier eluting HPLC peak
B23: I-605 (peptide)
peptide: Ac-[αAllylPro]DI[B5(5)]D[Cit]AAFQ[S8]F[Bta]Q-NH2
modifications: staple 1-4, 4-11
B24: I-763 (peptide)
peptide: Ac-[αAllylPro]D[tBuAla][B5(7)]DDAAFQ[PyrS2][3Thi][Bta]Q-NH2
modifications: staple 1-4, 4-11; also: earlier-eluting staple isomer
B25: I-2528 (peptide)
peptide: Ac-[αAllylPro]N[Cha][B5(25)]DQK(Me2Npr)AFL[PyrS2]F[Bta][MorphAsn]-NH2
modifications: staple 1-4, 4-11; reading uncertain; also: printed as Ac-PL3-Asn-Cha-B5-Asp-Gln-[Me2Npr]Lys-Ala-Phe-Leu-PyrS2-Phe-BztA-MorphAsn-NH2
B26: I-2524 (peptide)
peptide: Ac-[αAllylPro]N[Cha][B5(25)]DQK(Ms)AFL[PyrS2]F[Bta][MorphAsn]-NH2
modifications: staple 1-4, 4-11
B27: I-2527 (peptide)
peptide: Ac-[αAllylPro]N[Cha][B5(4)]DQK(Morpholinoacetyl)AFL[PyrS2]F[Bta][MorphAsn]-NH2
modifications: staple 1-4, 4-11
B28: I-2525 (peptide)
peptide: Ac-[αAllylPro]N[Cha][B5(25)]DQK(CF3CO)AFL[PyrS2]F[Bta][MorphAsn]-NH2
modifications: staple 1-4, 4-11
B29: I-1268: Ac-PL3-Asp-Npg-B5-Asp-Thr-Ala-Ala-3F3MeF-Thr-PyrS2-Phe-BztA-Ser-NH2 (peptide)
peptide: Ac-[αAllylPro]D[tBuAla][B5(5)]DTAA[Phe(3-CF3)]T[PyrS2″]F[Bta]S-NH2
modifications: staple 1-4, 4-11

Starred links: 1 amine or outer side, 2 acyl side, 3 side chain; linkers in the order of their positions; H or OH if unused. Positions of bridges follow the written chain, without caps; N, C: chain ends. Non-standard residues stand in square brackets, D forms with d. Primed or numbered codes have the meaning given here. *: point of attachment. PyrS2″ = (S)-3-amino-1-((pent-4-en-1-yloxy)carbonyl)pyrrolidine-3-carboxylic acid (stapling residue), C=CCCCOC(=O)N1CC[C@@](N[*:1])(C(=O)[*:2])C1; B5(4) = 2,2-bis(4-pentenyl)glycine = 2-amino-2-(pent-4-en-1-yl)hept-6-enoic acid (stitching residue), C=CCCCC(CCCC=C)(N[*:1])C(=O)[*:2]; B5(5) = 2,2-bis(4-pentenyl)glycine, 2-amino-2-(pent-4-en-1-yl)hept-6-enoic acid (stitching residue), C=CCCCC(CCCC=C)(N[*:1])C(=O)[*:2]; PyrS2 = (S)-3-amino-1-((pent-4-en-1-yloxy)carbonyl)pyrrolidine-3-carboxylic acid, C=CCCCOC(=O)N1CC[C@@](N[*:1])(C(=O)[*:2])C1; B5(7) = 2-amino-2-(pent-4-en-1-yl)hept-6-enoic acid, two olefinic side chains, C=CCCCC(CCCC=C)(N[*:1])C(=O)[*:2]; B5(25) = 2-amino-2-(pent-4-en-1-yl)hept-6-enoic acid (stitching residue), C=CCCCC(CCCC=C)(N[*:1])C(=O)[*:2]; MorphAsn = (S)-2-amino-4-morpholino-4-oxobutanoic acid, O=C(C[C@H](N[*:1])C(=O)[*:2])N1CCOCC1; B5(3) = 2,2-bis(4-pentenyl)glycine (stitching residue), C=CCCCC(CCCC=C)(N[*:1])C(=O)[*:2]; R6 = (R)-2-amino-2-methyloct-7-enoic acid, C=CCCCC[C@@](C)(N[*:1])C(=O)[*:2]; R4 = (R)-2-amino-2-methylhex-5-enoic acid, C=CCC[C@@](C)(N[*:1])C(=O)[*:2]; Phe(3-CF3) = N[C@@H](Cc1cccc(C(F)(F)F)c1)C(=O)O; Phe(2-Cl) = N[C@@H](Cc1ccccc1Cl)C(=O)O; dαMeGly(allyl) = C=CC[C@@](C)(N)C(=O)O; Bta = N[C@@H](Cc1csc2ccccc12)C(=O)O; Lys(iPr) = CC(C)NCCCC[C@H](N)C(=O)O; αAllylPro = C=CC[C@@]1(C(=O)O)CCCN1; Morpholinoacetyl = O=C(CN1CCOCC1)*; tBuAla = CC(C)(C)C[C@H](N)C(=O)O; 3Thi = N[C@@H](Cc1ccsc1)C(=O)O; Cha = N[C@@H](CC1CCCCC1)C(=O)O; Cit = NC(=O)NCCC[C@H](N)C(=O)O; S8 = C=CCCCCCC[C@](C)(N)C(=O)O; Leu(ol) = CC(C)C[C@H](N)CO; Me2Npr = not defined here; Alaol = C[C@@H](CO)N*; Ms = CS(=O)(=O)*

One experiment has as its target full-length beta-Catenin (Uniprot ID P35222) (Homo sapiens (Human)) (UniProt P35222). As to the kind of experiment: fluorescence polarization competition; 10 nM full-length beta-catenin + 10 nM 5FAM-TCF4(10-53) probe. Background: Polarisation of emitted light reports the rotation of a fluorescent probe.
Target sequence in this assay (P35222 whole entry): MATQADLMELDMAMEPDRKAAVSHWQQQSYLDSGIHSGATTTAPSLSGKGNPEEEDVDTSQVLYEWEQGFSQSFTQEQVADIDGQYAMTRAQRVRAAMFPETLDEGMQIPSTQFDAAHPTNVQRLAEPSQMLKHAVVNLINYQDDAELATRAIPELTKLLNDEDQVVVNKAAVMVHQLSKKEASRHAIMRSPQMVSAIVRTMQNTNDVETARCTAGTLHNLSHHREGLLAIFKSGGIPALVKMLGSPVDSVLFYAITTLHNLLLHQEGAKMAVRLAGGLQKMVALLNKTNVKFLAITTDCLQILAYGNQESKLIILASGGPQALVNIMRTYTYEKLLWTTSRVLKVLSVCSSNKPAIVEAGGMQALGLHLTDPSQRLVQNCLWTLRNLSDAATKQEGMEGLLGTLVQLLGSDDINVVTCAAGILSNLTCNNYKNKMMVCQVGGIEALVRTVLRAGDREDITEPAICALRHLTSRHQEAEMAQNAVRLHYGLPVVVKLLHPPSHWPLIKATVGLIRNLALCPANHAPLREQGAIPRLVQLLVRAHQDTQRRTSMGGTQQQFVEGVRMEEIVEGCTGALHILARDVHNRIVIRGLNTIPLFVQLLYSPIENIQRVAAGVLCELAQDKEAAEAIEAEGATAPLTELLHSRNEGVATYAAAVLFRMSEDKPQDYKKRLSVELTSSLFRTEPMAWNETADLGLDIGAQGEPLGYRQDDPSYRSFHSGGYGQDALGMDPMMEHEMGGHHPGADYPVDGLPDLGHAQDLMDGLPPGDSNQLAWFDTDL
As to B1, the IC50 is 312 nM.

For the molecule B2, the IC50 is 536 nM.

In the case of B3, the IC50 is 227 nM.

B4: the IC50 amounted to 285 nM.

In the case of B5, the IC50 turned out to be 728 nM.

In the case of B6, the IC50 was determined as 612 nM.

For B7, the IC50 came out at 397 nM.

For B8, the IC50 stood at 357 nM.

In the case of B9, the IC50 stood at 1020 nM.

Consider B10, for which the IC50 was 186 nM.

With B11, the IC50 turned out to be 585 nM.

For another experiment the target is unchanged. As to the kind of experiment: fluorescence polarization competition; full-length beta-catenin, competitor 5FAM-TCF4(10-53) probe.
Turning to B12, the EC50 was determined as 14 nM.

B13 had an EC50 of 5 nM.

B14 displayed an EC50 of 1260 nM.

Take B15: the EC50 is 498 nM.

In turn, B16 displayed an EC50 of 352 nM.

Molecule B17 yielded an EC50 of 6 nM.

As for B18, the EC50 was 324 nM.

The molecule B19 had an EC50 of 5 nM.

In turn, B20 yielded an EC50 of 7 nM.

As for B21, the EC50 turned out to be 409 nM. Compared with the last molecule, the EC50 is about 58-fold higher.

In turn, B22 yielded an EC50 of 692 nM. This EC50 lies about 1.7-fold higher than the previous one.

B23: the EC50 was determined as 632 nM.

Take B24: the EC50 was determined as 5 nM.

The next experiment has the same target. As to the kind of experiment: fluorescence polarization competition; peptide titrated against 10 nM full-length beta-catenin + 10 nM 5FAM-TCF4(10-53).
For B13, the IC50 came out at 5 nM.

Take B14: the IC50 was 1260 nM.

On to B25, for which the IC50 came to 610 nM.

As to B15, the IC50 was found to be 498 nM.

On to B16, for which the 50% inhibitory concentration (IC50) was 352 nM.

In the case of B26, the IC50 is 609 nM.

Turning to B17, the IC50 was found to be 6 nM.

For the molecule B18, the IC50 stood at 324 nM.

Turning to B27, the IC50 amounted to 263 nM.

Regarding B21, the IC50 came out at 409 nM.

Regarding B28, the half-inhibitory concentration (IC50) stood at 4290 nM.

As to B29, the IC50 was found to be 198 nM.

A further experiment has the same target. Nature of the experiment: fluorescence polarization competition; full-length beta-catenin with 5FAM-TCF4(10-53) probe as competitor.
Target sequence in this assay (P35222 whole entry): as above
On to B12, for which the IC50 was 14 nM.

B19 displayed an IC50 of 5 nM.

In the case of B20, the IC50 stood at 7 nM.

As for B22, the IC50 was 692 nM.

The molecule B23 showed an IC50 of 632 nM.

For the molecule B24, the IC50 came out at 5 nM.

Broadly, the IC50 is the concentration that inhibits the measured activity by half. Usually EC50 stands for the concentration at which the effect is half-maximal. Low values mean an effect from little substance, high ones a need for much substance.
